Measurements from article PMC8801479 (2021).

Key:
Test in all cases: ELISA; receptor in solution, complex captured on BMP-7 GF mAb
[1] = biological target: BMP-7 complex containing biotinylated prodomain (prodomain biotinylated through amines, reconstituted with … (human, UniProt P18075 293-431, biotin through amines (EZ-Link NHS-PEG4-Biotin)))
[2] = biological target: BMP-7 complex containing biotinylated GF (mature BMP-7 biotinylated through the glycan, reconstituted with … (human, UniProt P18075 293-431, biotin through the sugars (sodium metaperiodate, hydrazide PEG4 Biotin)))
BMP-7 complex containing biotinylated GF (mature BMP-7 biotinylated through the glycan, reconstituted with …, sequence (P18075 30-292, chain 1 of 2): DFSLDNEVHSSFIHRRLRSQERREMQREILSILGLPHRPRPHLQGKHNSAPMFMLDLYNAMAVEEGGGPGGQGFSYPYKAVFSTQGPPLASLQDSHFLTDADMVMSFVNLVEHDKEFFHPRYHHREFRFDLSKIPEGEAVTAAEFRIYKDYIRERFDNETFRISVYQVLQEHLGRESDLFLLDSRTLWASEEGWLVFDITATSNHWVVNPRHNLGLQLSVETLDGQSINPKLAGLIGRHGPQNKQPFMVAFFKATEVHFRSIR
BMP-7 complex containing biotinylated GF (mature BMP-7 biotinylated through the glycan, reconstituted with …, sequence (P18075 293-431, chain 2 of 2): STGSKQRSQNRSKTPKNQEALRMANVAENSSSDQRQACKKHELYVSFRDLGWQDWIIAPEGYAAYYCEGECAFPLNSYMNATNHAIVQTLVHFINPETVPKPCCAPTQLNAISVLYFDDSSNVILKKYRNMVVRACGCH

[3] = biological target: unbiotinylated BMP-7 complex (bone morphogenetic protein 7 mature domain/prodomain soluble complex) (human, UniProt P18075 293-431)
unbiotinylated BMP-7 complex (bone morphogenetic protein 7 mature domain/prodomain soluble complex), sequence (P18075 30-292, chain 1 of 2): as the sequence (P18075 30-292, chain 1 of 2) above
unbiotinylated BMP-7 complex (bone morphogenetic protein 7 mature domain/prodomain soluble complex), sequence (P18075 293-431, chain 2 of 2): as the sequence (P18075 293-431, chain 2 of 2) above

BMP-7 complex containing biotinylated prodomain (prodomain biotinylated through amines, reconstituted with …, sequence (P18075 30-292, chain 1 of 2): as the sequence (P18075 30-292, chain 1 of 2) above
BMP-7 complex containing biotinylated prodomain (prodomain biotinylated through amines, reconstituted with …, sequence (P18075 293-431, chain 2 of 2): as the sequence (P18075 293-431, chain 2 of 2) above

Kd [1]: 19 nM
Kd [2]: 8.7 nM
Kd [3]: 11.9 nM
B1: BMPR2-Fc (bone morphogenetic protein receptor type-2 fused to Fc) (Fc fusion)
chain: SQNQERLCAFKDPYQQDLGIGESRISHENGTILCSKGSTCYGLWEKSKGDINLVKQGCWSHIGDPQECHYEECVVTTTPPSIQNGTYRFCCCSTDLCNVNFTENFPPPDTTPLSPPHSFNRDET
